Patent publication US20240190960A1 (Chugai, published 2024)

T1: Biotinylated human CD3εδ heterodimer (Fc-fused human CD3ε / Fc-fused human CD3δ) (human, biotin on the Avi tag (BirA))
T1 chain 1: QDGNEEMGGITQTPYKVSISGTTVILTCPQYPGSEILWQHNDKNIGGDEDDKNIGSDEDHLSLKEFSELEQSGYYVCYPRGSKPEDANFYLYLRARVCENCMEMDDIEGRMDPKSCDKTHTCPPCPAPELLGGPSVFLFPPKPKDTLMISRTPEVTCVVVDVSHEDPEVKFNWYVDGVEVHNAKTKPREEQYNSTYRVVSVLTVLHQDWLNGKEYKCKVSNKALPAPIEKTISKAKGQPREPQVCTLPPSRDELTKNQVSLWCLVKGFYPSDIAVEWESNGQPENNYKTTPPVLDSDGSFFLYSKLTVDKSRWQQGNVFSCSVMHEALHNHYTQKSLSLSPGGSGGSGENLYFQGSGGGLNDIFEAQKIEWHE
T1 chain 2: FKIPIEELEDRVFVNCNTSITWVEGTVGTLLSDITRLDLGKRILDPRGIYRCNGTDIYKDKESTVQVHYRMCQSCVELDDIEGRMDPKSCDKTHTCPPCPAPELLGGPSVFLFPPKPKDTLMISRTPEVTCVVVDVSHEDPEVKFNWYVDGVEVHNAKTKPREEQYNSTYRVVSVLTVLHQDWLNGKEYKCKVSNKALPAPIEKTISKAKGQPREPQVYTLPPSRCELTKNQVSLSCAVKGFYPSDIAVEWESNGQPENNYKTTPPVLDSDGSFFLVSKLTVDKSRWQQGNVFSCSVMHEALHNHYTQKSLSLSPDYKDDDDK


Assays:
[1] = biological target: T1, Biotinylated human CD3εδ heterodimer …; experiment: BLI (Octet RED384), 37 C; biotinylated CD3εδ on streptavidin sensor, one-arm antibody in solution for 120 s (0-1000 nM used, the concentration shown is not given)
Method: Using an Octet RED 384 (ForteBio), a streptavidin sensor (ForteBio) was reacted with CD3εδ prepared at 0.2 μM in ACES at 37° C. for 300 seconds. […] Response values were extracted every three seconds, and graphs were depicted using Microsoft Excel 2013 (Microsoft).

[2] = biological target: T2, Human CD3εδ heterodimer (soluble human CD3ε with FLAG tag / soluble human CD3δ with His tag) (human, UniProt P07766 22-126; P04234 22-105); experiment: SPR (Biacore T200), BiAb captured on protein A, CD3εδ 0-15000 nM as analyte, 37 C
T2 construct: Positions are counted from 1, so the entries may include the signal peptides
Method: (3) Evaluation of Binding Properties of Clamping Antibodies by SPR Using an Amine Coupling Kit (GE Healthcare), SuRe Protein A (GE Healthcare) Prepared at 25 μg/mL in Acetate4.5 (GE Healthcare) was Immobilized onto Sensor Chip CM4 at Approximately 1200 RU Per Flow Cell.
HBS-EP+(GE Healthcare) was used for the running buffer, and the measurement was carried out at 37° C. Each antibody was reacted at a flow rate of 10 μL/min for 60 seconds to capture 1000 RU, and analyte CD3εδ prepared at 0 nM, 4.8 nM, 24 nM, 120 nM, 600 nM, 3000 nM, or 15000 nM was allowed to act at a flow rate of 30 μL/min for 60 seconds to monitor the binding phase, and HBS-EP+ was passed at a flow rate of 30 μL/min for 120 seconds to monitor the dissociation phase. The sensor chip was regenerated by passing Glycine1.5 and 25 mM NaOH, each at a flow rate of 30 μL/min for 30 seconds. The dissociation constant KD (M) was calculated based on the association rate constant ka (1/Ms) and the dissociation rate constant kd (1/s), which are kinetic parameters calculated from the sensorgram obtained by the measurement. Biacore T200 Evaluation Software (GE Healthcare) was used for the calculation of each parameter.

| Binder | binding result [1] | Kd [2] |
| --- | --- | --- |
| CE115HA000 one arm (CE115HA000-pE22Hh/GLS3000-k0//Kn010) (antibody, human IgG1, kappa, L234A L235A, N297A, also called one-arm antibody CE115HA000) heavy: QVQLVESGGGVVQPGRSLRLSCAASGFTFSNAWMHWVRQAPGKGLEWVAQIKAKSNNYATYYAESVKGRFTISRDDSKNSLYLQMNSLKTEDTAVYYCRYVHYGAYYGVDAWGQGTTVTVSSASTKGPSVFPLAPSSKSTSGGTAALGCLVKDYFPEPVTVSWNSGALTSGVHTFPAVLQSSGLYSLSSVVTVPSSSLGTQTYICNVNHKPSNTKVDKKVEPKSCDKTHTCPPCPAPEAAGGPSVFLFPPKPKDTLMISRTPEVTCVVVDVSHEDPEVKFNWYVDGVEVHNAKTKPREEQYASTYRVVSVLTVLHQDWLNGKEYKCKVSNKALPAPIEKTISKAKGQPREPQVYTLPPSRCELTKNQVSLSCAVKGFYPSDIAVEWESNGQPENNYKTTPPVLDSDGSFFLVSKLTVDKSRWQQGNVFSCSVMHEALHNHYTQKSLSLSPDYKDDDDK light: DIVMTQSPLSLPVTPGEPASISCRSSQSLVHSNRNTYLHWYQQKPGQAPRLLIYKVSNRFSGVPDRFSGSGSGTDFTLKISRVEAEDVGVYYCGQGTQVPYTFGQGTKLEIKRTVAAPSVFIFPPSDEQLKSGTASVVCLLNNFYPREAKVQWKVDNALQSGNSQESVTEQDSKDSTYSLSSTLTLSKADYEKHKVYACEVTHQGLSSPVTKSFNRGEC not shown | binds | – |
| BiAb of CE115HA000-BS03a/GLS3000-k0 with the IC17 arm (bispecific antibody, human IgG1, kappa, N297A, how the CE115/IC17 BiAb was made is not described) heavy 1: QVQLVESGGGVVQPGRSLRLSCAASGFTFSNAWMHWVRQAPGKGLEWVAQIKAKSNNYATYYAESVKGRFTISRDDSKNSLYLQMNSLKTEDTAVYYCRYVHYGAYYGVDAWGQGTTVTVSSASTKGPSVFPLAPSSRSTSESTAALGCLVKDYFPEPVTVSWNSGALTSGVHTFPAVLQSSGLYSLSSVVTVPSSSLGTKTYTCNVDHKPSNTKVDKRVEPKSCDKTHTCPPCPAPELRRGPKVFLFPPKPKDTLMISRTPEVTCVVVDVSQEDPEVQFNWYVDGVEVHNAKTKPREEQFASTYRVVSVLTVLHQDWLNGKEYKCKVSNKGLPSSIEKTISKAKGQPREPQVYTLPPSREEMTKNQVSLTCLVKGFYPSDIAVEWESNGQPENNYKTTPPYLDSDGSFFLYSKLTVDKSRWQQGNVFSCSVMHEALHNHYTQESLSLSP light 1: DIVMTQSPLSLPVTPGEPASISCRSSQSLVHSNRNTYLHWYQQKPGQAPRLLIYKVSNRFSGVPDRFSGSGSGTDFTLKISRVEAEDVGVYYCGQGTQVPYTFGQGTKLEIKRTVAAPSVFIFPPSDEQLKSGTASVVCLLNNFYPREAKVQWKVDNALQSGNSQESVTEQDSKDSTYSLSSTLTLSKADYEKHKVYACEVTHQGLSSPVTKSFNRGEC heavy 2: QVQLQQSGPQLVRPGASVKISCKASGYSFTSYWMHWVNQRPGQGLEWIGMIDPSYSETRLNQKFKDKATLTVDKSSSTAYMQLSSPTSEDSAVYYCALYGNYFDYWGQGTTLTVSSASTKGPSVFPLAPSSRSTSESTAALGCLVKDYFPEPVTVSWNSGALTSGVHTFPAVLQSSGLYSLSSVVTVPSSSLGTKTYTCNVDHKPSNTKVDKRVEPKSCDKTHTCPPCPAPELRRGPKVFLFPPKPKDTLMISRTPEVTCVVVDVSQEDPEVQFNWYVDGVEVHNAKTKPREEQFASTYRVVSVLTVLHQDWLNGKEYKCKVSNKGLPSSIEKTISKAKGQPREPQVYTLPPSREEMTKNQVSLTCLVKGFYPSDIAVEWESNGQPENNYKTTPPYLDSDGSFFLYSKLTVDKSRWQQGNVFSCSVMHEALHNHYTQESLSLSP light 2: DIQMTQSSSSFSVSLGDRVTITCKASEDIYNRLAWYQQKPGNAPRLLISGATSLETGVPSRFSGSGSGKDYTLSITSLQTEDVATYYCQQYWSTPYTFGGGTKLEVKRTVAAPSVFIFPPSDEQLKSGTASVVCLLNNFYPREAKVQWKVDNALQSGNSQESVTEQDSKDSTYSLSSTLTLSKADYEKHKVYACEVTHQGLSSPVTKSFNRGEC | – | 0.35 µM |
| BiAb of CE115HA056-BS03a/GLS3000-k0 with the IC17 arm (bispecific antibody, human IgG1, kappa, N297A, See m38 on the IC17 arm) heavy 1: QVQLVESGGGVVQPGRSLRLSCAASGFTFSNAWMHWVRQAPGKGLEWVAQIKAKSNNYATYYAESVKGRFTISRDDSKNSLYLQMNSLKTEDTAVYYCRYAHYGAYYGVDAWGQGTTVTVSSASTKGPSVFPLAPSSRSTSESTAALGCLVKDYFPEPVTVSWNSGALTSGVHTFPAVLQSSGLYSLSSVVTVPSSSLGTKTYTCNVDHKPSNTKVDKRVEPKSCDKTHTCPPCPAPELRRGPKVFLFPPKPKDTLMISRTPEVTCVVVDVSQEDPEVQFNWYVDGVEVHNAKTKPREEQFASTYRVVSVLTVLHQDWLNGKEYKCKVSNKGLPSSIEKTISKAKGQPREPQVYTLPPSREEMTKNQVSLTCLVKGFYPSDIAVEWESNGQPENNYKTTPPYLDSDGSFFLYSKLTVDKSRWQQGNVFSCSVMHEALHNHYTQESLSLSP light 1: DIVMTQSPLSLPVTPGEPASISCRSSQSLVHSNRNTYLHWYQQKPGQAPRLLIYKVSNRFSGVPDRFSGSGSGTDFTLKISRVEAEDVGVYYCGQGTQVPYTFGQGTKLEIKRTVAAPSVFIFPPSDEQLKSGTASVVCLLNNFYPREAKVQWKVDNALQSGNSQESVTEQDSKDSTYSLSSTLTLSKADYEKHKVYACEVTHQGLSSPVTKSFNRGEC heavy 2: QVQLQQSGPQLVRPGASVKISCKASGYSFTSYWMHWVNQRPGQGLEWIGMIDPSYSETRLNQKFKDKATLTVDKSSSTAYMQLSSPTSEDSAVYYCALYGNYFDYWGQGTTLTVSSASTKGPSVFPLAPSSRSTSESTAALGCLVKDYFPEPVTVSWNSGALTSGVHTFPAVLQSSGLYSLSSVVTVPSSSLGTKTYTCNVDHKPSNTKVDKRVEPKSCDKTHTCPPCPAPELRRGPKVFLFPPKPKDTLMISRTPEVTCVVVDVSQEDPEVQFNWYVDGVEVHNAKTKPREEQFASTYRVVSVLTVLHQDWLNGKEYKCKVSNKGLPSSIEKTISKAKGQPREPQVYTLPPSREEMTKNQVSLTCLVKGFYPSDIAVEWESNGQPENNYKTTPPYLDSDGSFFLYSKLTVDKSRWQQGNVFSCSVMHEALHNHYTQESLSLSP light 2: DIQMTQSSSSFSVSLGDRVTITCKASEDIYNRLAWYQQKPGNAPRLLISGATSLETGVPSRFSGSGSGKDYTLSITSLQTEDVATYYCQQYWSTPYTFGGGTKLEVKRTVAAPSVFIFPPSDEQLKSGTASVVCLLNNFYPREAKVQWKVDNALQSGNSQESVTEQDSKDSTYSLSSTLTLSKADYEKHKVYACEVTHQGLSSPVTKSFNRGEC | – | 7.4 µM |
| CE115HA056 one arm (CE115HA056-pE22Hh/GLS3000-k0//Kn010) (antibody, human IgG1, kappa, L234A L235A, N297A, One-arm format; also called one-arm antibody CE115HA056) heavy: QVQLVESGGGVVQPGRSLRLSCAASGFTFSNAWMHWVRQAPGKGLEWVAQIKAKSNNYATYYAESVKGRFTISRDDSKNSLYLQMNSLKTEDTAVYYCRYAHYGAYYGVDAWGQGTTVTVSSASTKGPSVFPLAPSSKSTSGGTAALGCLVKDYFPEPVTVSWNSGALTSGVHTFPAVLQSSGLYSLSSVVTVPSSSLGTQTYICNVNHKPSNTKVDKKVEPKSCDKTHTCPPCPAPEAAGGPSVFLFPPKPKDTLMISRTPEVTCVVVDVSHEDPEVKFNWYVDGVEVHNAKTKPREEQYASTYRVVSVLTVLHQDWLNGKEYKCKVSNKALPAPIEKTISKAKGQPREPQVYTLPPSRCELTKNQVSLSCAVKGFYPSDIAVEWESNGQPENNYKTTPPVLDSDGSFFLVSKLTVDKSRWQQGNVFSCSVMHEALHNHYTQKSLSLSPDYKDDDDK light: DIVMTQSPLSLPVTPGEPASISCRSSQSLVHSNRNTYLHWYQQKPGQAPRLLIYKVSNRFSGVPDRFSGSGSGTDFTLKISRVEAEDVGVYYCGQGTQVPYTFGQGTKLEIKRTVAAPSVFIFPPSDEQLKSGTASVVCLLNNFYPREAKVQWKVDNALQSGNSQESVTEQDSKDSTYSLSSTLTLSKADYEKHKVYACEVTHQGLSSPVTKSFNRGEC not shown | binds | – |
